Data reported in IntAct's records for PubMed 18812496.

B1: Plastid division protein PDV2 (Arabidopsis thaliana (Mouse-ear cress)), Q9XII1 (parent)
chain: MEDEEGIGLILARATELRLKISDCIDNSSTTVSDNGDGNEDLSPGEGRKSEIIGNQDKDFDSISSEDVDEAEAERLLRIRDALEALESQLASLQNLRQRQQYEKQLALSEIDYSRKMLLEKLKEYKGKDFEVLRETTTFAGERVDYENDLLLPPYPVHPPLSLGLDNNNGYLSHLPSKKKSDANGFGSGHVRNEAEAKSPNGGSGGSSHGVIRFLGSVAKIVLPIIGVISLLSASGYGPEMRKRGASLNLFGLLPHRATRGKRTPNQCPPGKVLVIEDGEARCLVKERVEIPFDSVVAKRDVTYGYG
partner: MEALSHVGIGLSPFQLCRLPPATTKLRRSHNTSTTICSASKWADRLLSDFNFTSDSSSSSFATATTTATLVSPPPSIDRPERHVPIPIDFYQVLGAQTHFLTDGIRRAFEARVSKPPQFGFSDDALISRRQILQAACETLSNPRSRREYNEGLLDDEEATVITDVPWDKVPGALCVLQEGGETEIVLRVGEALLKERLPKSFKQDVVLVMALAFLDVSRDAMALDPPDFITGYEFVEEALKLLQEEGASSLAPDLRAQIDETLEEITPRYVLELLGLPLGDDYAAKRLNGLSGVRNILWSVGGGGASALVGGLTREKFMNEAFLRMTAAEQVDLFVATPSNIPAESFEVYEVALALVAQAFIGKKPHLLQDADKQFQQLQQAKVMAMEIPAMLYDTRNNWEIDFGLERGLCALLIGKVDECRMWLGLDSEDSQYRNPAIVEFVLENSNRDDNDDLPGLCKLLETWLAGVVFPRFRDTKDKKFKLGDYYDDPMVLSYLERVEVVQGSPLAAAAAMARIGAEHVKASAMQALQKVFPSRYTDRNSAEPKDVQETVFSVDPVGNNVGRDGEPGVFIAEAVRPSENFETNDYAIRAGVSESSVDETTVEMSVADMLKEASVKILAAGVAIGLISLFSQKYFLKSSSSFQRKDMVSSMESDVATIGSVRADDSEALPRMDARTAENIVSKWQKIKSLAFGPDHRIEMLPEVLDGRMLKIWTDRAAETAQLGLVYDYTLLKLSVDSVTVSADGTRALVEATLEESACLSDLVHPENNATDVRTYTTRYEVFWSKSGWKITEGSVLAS

Variants of: B1
Details: with arc6_arath ARC6, Q9FIG9

effect of a mutation on the interaction | Variant
decreasing interaction | G307D
